Assay: yeast display, Sf9 membrane polyspecificity reagent, FACS + sequencing; frameworks hold sequencing errors
How it was run: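 Polyreactivity labels are assigned by the sorting gate from which each nanobody was recovered. The gates were low and high (top ~1%), set on anti-HA fluorescence for expression and streptavidin fluorescence for reagent binding. Before sorting, galactose-induced (36–48 hours) yeast display cells were stained for 1 hour at 4 °C with 10% biotinylated, detergent-solubilized Sf9 membrane reagent.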

NVQLVESGGGLVQAGGSLRLSCAASGRTFPTYAMGWYRQAPGKERELVAAISSSGGSTYYADSVKGRFTISRDNAKNTVYLQMNSLKPEDTAVYYCAALRARNLNPGYDYWGQGTQVTVSS
polyreactivity (PSR sort gate): low polyreactivity

QVQLVESGGGLVQAGGSLRLSCAASGFTFSGNAMGWYRQAPGKERELVAAITTTGVRTYYADSVKGRFTISRDNAKNTVYLQMNSLKPEDTAVYYCNKKRTQRVPVRYDYWGQGTQVTVSS
polyreactivity (PSR sort gate): high polyreactivity

QFQLVESGGGLVQAGGSLRLSCAASGSIFHPYTMGWYRPAPGKERELVAAISWSGGNTNYADSVKGRFTISRDNAKNTVYLQMNSLKPEDTAVYYCNKATNLSGGYDSWGQGTQVTVSS
polyreactivity (PSR sort gate): low polyreactivity

QVQLVESGGGLVQAGGSLRLSCAASGRTFRFYALGWYRQAPGKEREFVAAISRSVGSTYYADSVKGRFTISRDNAKHTVYLQMNSLKPEDTAVYYCAARVFRGLGEYYWGQGTQVTVSS
polyreactivity (PSR sort gate): high polyreactivity

QVQLVESGGGLVQAGGSLRLSCAASGSIYVKGWYRQAPGKERELVAAISTNGGRTYYADSVKGRFTISRDNAKITVYLQLTSLKPEDTAVYYCAVRTTPKTRRFYYWGQGTQVTVSS
polyreactivity (PSR sort gate): high polyreactivity

QVQLEESGGGLVQAGGSLRLCCAASGSTFWAYVMGWYRQAPGKEMELVAAISKSGVRTHYADSVKGRFTISRDNAKNTVYLQMNSRKPEDTAVYYSAAGGVGNLDDYWGQGTQVTVSS
polyreactivity (PSR sort gate): high polyreactivity

QFQLVESGGGLVQAGGSLRLSCAASGSIITPYAMGWYRPAPGKERELVAAISGRGGSTYYADSVKGRFTISRDNAKNTVYLQMNSLKPEDTAVYYCAARQYFRWYGWSMDYWGQGTQVTVSS
polyreactivity (PSR sort gate): high polyreactivity

QVQLVESGGGLVQAGGSLRLICAASGSISYYNAMGRYRQAPGKERELVADITSGGGTYYADSVMGGFTISRDNAKNTVFLQMNSLKPEDTAVYYCAKDYGFTGYGYWGQGTQVTVSS
polyreactivity (PSR sort gate): low polyreactivity

QVQLVESGGGLVQAGGSLRVSCAASGSTFTGYAMGWYRQAPGKERELVAAISRGGSTNYADSVKGRFTISRDNAKNTVYLQMNSLKPEDTAVYYCAAETYYFGYGYWGQGTQVTVSS
polyreactivity (PSR sort gate): high polyreactivity

QVQLVESGGGLVQAGGSLRLSCAAYGGIFYSNGMGWYRQAPGKERELVAAITGGDITDYADSVKGRFTISRDNAKNTVYLQMNSLKPEDTAVYYCAVESYPPDYGPRFGSWGQGTQVTVSS
polyreactivity (PSR sort gate): low polyreactivity

QVQLVQSRRGLVQAGCSLRLSCAASGRTFVIYAMGWYRQAPGKERELVAAISKGGGSTYYADSVKGRFTISRDNAKNTVYLQMNSLKPEDTAVYYCAVEASRAGAWYEYWGQGTQVTVSS
polyreactivity (PSR sort gate): high polyreactivity

QVQLVESGGGLVQAGGSLRLSCAASGITFQYYAMGWYRQAPGKERELVAAISSGGSTYYADSVKGRFTISRDNAKNTVYLQMNILKPEDTAVYYCAAKRVFFGLNYDYWGQGTQVTVSS
polyreactivity (PSR sort gate): high polyreactivity

QVQLVESGGGLVQAGGSLRLSCSASGRIFSGYAMGWYRQAPGKERELVAAITSVGSTNYADSVKGRFTISRDNAKNTVYLQMNSLKTEDTAVYYCAARSQIYYRYRSYGYWGQGTQVTVSS
polyreactivity (PSR sort gate): high polyreactivity

QVQLVESGGRLVQAGGSLRLSCAASGSTFYRNAMGWYRQAPGKERELVASINNGGSTYYADSVKGRFTISRDNAKNTVYLQMNSLKPEDTAVYYCAATESWDYDYWGQGTQVTVSS
polyreactivity (PSR sort gate): low polyreactivity

QVQLVESGGGLVQAGGSLRLSCAASGRTFPYKAMGWYRQAPGKERELVAVISSGGGRTYYADSVKGRFTISRDNAKNTVYLQMNSLKPEDTAVYYCNKGGYAIRYDYYWGQGTQVTVSS
polyreactivity (PSR sort gate): high polyreactivity

QVQLVESGGGLVQAGGSLRLSCAASGSIFKGYAMGWYRQAPGKERELVAAITGGGGSTYYADSVKGRFTISRDNAKNTVYLQMNSLKPEDTAVYYCAADARVKRYYFRKSGYWGQGTQVTVSS
polyreactivity (PSR sort gate): high polyreactivity

QVQLVESGGGLVQAGGSLRISCAASGSIFASKTMGWYRQAPGKERELVAGITKIGSSTYYADSVKGRFTISRDNAKNTVYLQMNSLKPEETAVYYCNAYLSPKQPLSPPEPTFEGGYWGQGTQVTVSS
polyreactivity (PSR sort gate): low polyreactivity

QVKLVESGGGLVQAGGSLRLSCAASGSIFLGNAMGWYRQAPGKERELVATISSSDGSTDYADSVKGRFTISRDNAKNTVYLQMNSLKPEDTEVYYCNADYSYGTTLDYWGQGSQVTVSS
polyreactivity (PSR sort gate): low polyreactivity

QVQLVESGGGLVQAGGSLRLSCAASGFTSYTNAMGWYRQAPGKERELVAAIDVSGSDTYYADSVKGRFTISRDNAKNTVYLQMNSLKPEDTAVYYCAAEYYSYYYQGYDYWGQGTQVTVSS
polyreactivity (PSR sort gate): high polyreactivity

QVQLVESGGGLVQAGGSLRLSCAASGSIFRFKAMGWYRQAPGKERELVAAITSSGGSTYYADSVKGRFTISRDNAKNTVYLQMNSLKPEDTAVYYCAAGARRVGRYYWGQGTQVTVSS
polyreactivity (PSR sort gate): high polyreactivity

QVQLVESGGGLVQAGGSLRLSCAASGRIFPFYAMGWYRPATWIQRELVAAITSSGGRTYYADSVKGRFTISRDIAKNTVYLQMNSLKPEETAVYYCAAGHGCYYRYFSQRDYWGQGTQVTVSS
polyreactivity (PSR sort gate): low polyreactivity

QVQLVESGGGLVQAGGRLRLTCAASGSIFLEYTMGWSRQAPGKEREVVASISWGGGSTYYADSVKGRFTISRDNAKNTVYLQMNSLKPEDTAVYYCAAVTKLSGIRYNYWGQGTQVTVSS
polyreactivity (PSR sort gate): low polyreactivity

QVQLVESGGGLVQAGGSLRLSCAASGFTFTIYAMGWYRPAPGKEMELVAAITGRGGSTYYADSVKGRFTISRDNAKNTVYLRMNSLKPEDTAVYYCADSQRSGHPSYDYWGQGTQVTVSS
polyreactivity (PSR sort gate): high polyreactivity

QVQLVESGGGLVQAGGSLRLSCVASGRIFARNAMGWYRQAPGKERELVAAITWSVGSTYYADSVKGRFTISRDNAKNTVYLQMISLKPEDTAVYYCAERYWYSRYWYDYWGQGTQVTVSS
polyreactivity (PSR sort gate): high polyreactivity

QVQLVESGGGLVQAGGSLRLSCAASGLIFFHNGMGWYRQAPGKEREFVAVISSSGGSTYYADSVKGRFTISRDNAKNTVYLQMNSLKPEDTAVYYCAARDYSRRYGYWGQGTQVTVSS
polyreactivity (PSR sort gate): high polyreactivity

QVQLVESGGGLVQAGGSLRLSCAASGSILYTNAMGWYRQAPGKERELVAAITTSGASTYYADSVKGRFTISRDNAKNTVYLQMNSLKPEDTAVYYCAATDYFPYDTYYAHDYWGQGTQVTVSS
polyreactivity (PSR sort gate): high polyreactivity

QVQLVESGGGLVQAGGSLRLSCAASGLIFYKYAMGWYRQAPGKERELVAAITSGGSTNYADSVKGRFTISRDNAKNTVYLQMNSLKPEDTAVYYCNADYNLYLVVRWWYPPVDYWGQGTQVTVSS
polyreactivity (PSR sort gate): low polyreactivity

QVQLVESGGCLVQAGGSLRLSGAASGSISYRNSMGWYRQAPGKERELVAAISSRGGSTFYADSEKGRFTISRDNAKNTVYLQMNSLKPEDTAVYYCAARGYHRFKNVNYWGQGTQVTVSS
polyreactivity (PSR sort gate): high polyreactivity

QVQLVESGGGLVQAGGSLRLSCAASGSIFGLYAMGWYIQAPGKERELVATISKSGVSTYYADSVKGRFTISRDNEKNTVYLQMKSLKPEVTAVYYCNADISRDNDFDYWGQGTQVTVSA
polyreactivity (PSR sort gate): low polyreactivity

QVQLVESGGGLVQAGGSLRLSCAASGLTFAYYAMGWYRQAPGKERELVAAISYSGGSTYYADSVKGRFTISRDNANKTVYLQMNSLKPEDTAVYYCNRDRNSGFYRRYGYWGQGTQVTVSS
polyreactivity (PSR sort gate): high polyreactivity

QVQLVESGGGIVQAGGSLRLSWAASGFIFNNYAMGWYRQAPGKERELVAAITGGGSTNYADSVKGRFTISRDNAKNTVYLQMNSLKPEDTAVYYCNAEGVWWSTRYDSWGQGTQVTVSS
polyreactivity (PSR sort gate): low polyreactivity

QVQLVESGGGLGQAGGSLRLSCAASGSIFTQYAMGWFRPAPGKERELVATISKSSGSTYYADSVKGRFTNSRDNAKNTVYLQMNSLKPEDTAVYDCAARYTRAYPYYYWGQGTQVTVSS
polyreactivity (PSR sort gate): high polyreactivity

QVQLVESGGGLVQAGGSLRLSCAASGRNFYYYAMGWYRQAPGKERELVAGISWSAGSTYYADSVKGRFTISRDNAKNTVYLQMNSLKPEDTAVYYCAARYWQSYRSQVTHSSTLDYWGQGTQVTVSS
polyreactivity (PSR sort gate): low polyreactivity

QVQLVESGGGLVQAGGSLRLSCAASGRTFRTYAMGWYRQAPGKERELVAAITSRAGSTYYADSVKGRFTISRDNAKNSVYLQMNSLKPEDTAVYYCAKQYYYGWYWGEDYWGQGTQVTVSS
polyreactivity (PSR sort gate): low polyreactivity

QVQLVESGGGLVQAGGSLSLSCAASGGIFAYNAMGWYRQAHGKEREWVATISSGVSTNYADSVKGRFTISRDNAKNTVYLQMNSLKPEDTAVYYCAAAIFITGYGSYGYWGQGTQVTVAS
polyreactivity (PSR sort gate): low polyreactivity

QVQLVESGGGLVQAGGSLRLSCAASGITFGRNTMGWYRQAPGKERELVAAIDSGGNTYADSVKGRFTISRDNAKNTVYLQMNSLKPEDSAVYYCAVDGGEFSSYGYWGQGTQVTVSS
polyreactivity (PSR sort gate): low polyreactivity

QVQLVESGGRLVQAGGSLRLSCAASGRIFVVNAMGWYRQAPGKERELVAAIDRSGGSTYYADSVKGRFTISRDNAKNTVYLQMNSLKPEDTAVYYCNTGRRYYSYRRDYWGQGTQVTVSS
polyreactivity (PSR sort gate): high polyreactivity

QVQLVESGGGIVQAGCSLRFSCAASGGTFGYYTLGWYRQAPGKERQLVAAISSGGGTDYADSVKGRFTISRDNAKNTVSLQMNSLKAEDTAVYYCNAQWLEWHYVFLPSYTMDYWGLGTQVTVSS
polyreactivity (PSR sort gate): low polyreactivity

QVQLVESGGGLVQAGGSLRLSCAASGRTFDLNDMGWYRQAPGKERELVAGINSGGSTKYADSVKGRFTISRDNAKNTVSLQMNSLKPEDTAVYYCATRWPGGSRWPFYLTYDYWGQGTQVTVSS
polyreactivity (PSR sort gate): low polyreactivity

QVQVVESGGGLVQEVGSLRLSCDASGRSFHHNVMGWYRQAPGKERELVAAISQSGCSTYYADSVKGRFTISRDNAKNTLYLLINSLKPEDSAVYYCNAGAAGRRYNYWGQGTQVTVSS
polyreactivity (PSR sort gate): low polyreactivity

QVQLVESGGGLVQAGGSLRLSCAASGSTFDAYAMGWCRQAPGTERELVAAITNAGSTNYADSVKGRFTISRDNAKNTVYLQMNSLKPEDTAVYYCATDWYHRYLDGRYDYWVQGTQVTVSS
polyreactivity (PSR sort gate): low polyreactivity

QVQLVESGGGLVQAGGSLRLSCAASGYIFWLNALGWYRQAPGKERELVAAIRSSGGSTYYADSVKGRFTISRDNAKNTVYLQMNSLKPEDTAVYDCARRGYNWYTHFGYDYWGQGTQVTVSS
polyreactivity (PSR sort gate): low polyreactivity

QVQLVESGGGLVQAGGSLRLSCAASGFTFSRYAMAWYRQAPGKERELVAAITWSGGRTYYADSVKGRFTISRDNAKNTVYLQMNSLKPEATAVYYCAAVYHVWKYHYDYWGQGTQVTVSS
polyreactivity (PSR sort gate): high polyreactivity
